From patent publication JP2012050437A

What was measured:
[1] = target: aggregated synthetic Aβ1-42 (human) (UniProt P05067); test: competition Aβ1-42 ELISA; competitor biotin-conjugated m12A11Cγ2a at a fixed concentration
[2] = target: Aβ peptide (bio-DAE peptide); test: Biacore (data not shown); the immobilised Aβ antigen is not given

B1: humanized 12A11 antibody, version 1 (antibody, V domains shown)
VH: QVQLVESGGGVVQPGRSLRLSCAFSGFSLSTSGMSVGWIRQAPGKGLEWLAHIWWDDDKYYNPSLKSRLTISKDTSKNTVYLQMNSLRAEDTAVYYCARRTTTADYFAYWGQGTTVTVSS
VL: DVVMTQSPLSLPVTPGEPASISCRSSQSIVHSNGNTYLEWYLQKPGQSPQLLIYKVSNRFSGVPDRFSGSGSGTDFTLKISRVEAEDVGVYYCFQSSHVPLTFGQGTKLEIK
fold of IC50 against murine and chimeric 12A11 [1]: < 2 fold
Kd [2]: 23 nM
